Measured values from article PMC11531844.

Molecular target: Rluc-tagged smAKAP, a peptide derived from an RI-specific AKAP
Assay: Renilla luciferase (Rluc) protein-fragment complementation assay (PCA)
Conditions: bar labelled L50R:smAKAP; parent: est. 13; read off a plot

Substance: Rluc-tagged RIβ WT (Renilla luciferase protein-fragment complementation hybrid protein) (from UniProt P31321) L50R
- response: 1.5 RLU 10^4
